The results in this text go back to article PMC11249846 (Protein Science : A Publication of the Protein Society, 2024).

The target of this assay is Hsc70‐T204A (human, UniProt P11142 1-646, T204A). Put plainly: NMR titration.
Chain of Hsc70‐T204A (P11142 whole entry T204A): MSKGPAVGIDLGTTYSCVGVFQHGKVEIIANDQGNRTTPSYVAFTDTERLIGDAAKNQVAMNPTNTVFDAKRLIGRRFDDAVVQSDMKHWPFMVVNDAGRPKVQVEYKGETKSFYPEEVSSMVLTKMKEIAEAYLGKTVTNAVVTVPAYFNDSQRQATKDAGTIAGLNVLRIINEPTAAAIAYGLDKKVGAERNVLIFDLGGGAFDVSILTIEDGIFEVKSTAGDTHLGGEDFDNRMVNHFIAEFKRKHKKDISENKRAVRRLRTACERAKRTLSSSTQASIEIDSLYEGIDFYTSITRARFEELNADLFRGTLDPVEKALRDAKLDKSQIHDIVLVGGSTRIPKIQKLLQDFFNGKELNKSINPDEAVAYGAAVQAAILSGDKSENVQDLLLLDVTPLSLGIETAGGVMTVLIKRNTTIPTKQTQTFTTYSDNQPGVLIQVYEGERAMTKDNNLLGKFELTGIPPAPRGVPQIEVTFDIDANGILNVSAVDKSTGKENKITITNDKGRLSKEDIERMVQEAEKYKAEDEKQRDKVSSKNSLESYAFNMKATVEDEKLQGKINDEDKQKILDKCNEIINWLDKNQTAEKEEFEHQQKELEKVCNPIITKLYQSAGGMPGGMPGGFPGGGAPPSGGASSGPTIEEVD

B1: wt (JD‐G/FR) (domain or fragment)
chain: not shown
As to B1, the binding result was “binds”.
